# Laboratory results as given in US20190136256.
# B1: HA-tagged TDP1 (HA-TDP1) (protein)
# chain: MAHSQVAYLIPLKADLKEDNSSPRITLSEGPNIIGRGNVSIVDKRLSRKHITIIVSTSGSASLSVDGTNPVVIRSSGDGERKKVKPSEEVSVCNDDLIELIPGHHFFKLVLLNGRAAKKARKAEDDVEAIRRFCPPNEKLPSTFRLLSVDALPDWANTSCVSINDVIEGDVVAAILSNYMVDIDWLMSACPKLANIPQVMVIHGEGDGRQEYIQRKKPANWILHKPRLPISFGTHHSKAIFLVYPRGVRVVVHTANLIHVDWNNKSQGLWMQDFPWKDDDKDPPKGCGFEGDLIDYLNVLKWPEFTANLPGRGNVKINAAFFKKFDYSDATVRLIASVPGYHTGFNLNKWGHMKLRTILQECIFDREFRRSPLIYQFSSLGSLDEKWLAEFGNSLSSGITEDKTPLGPGDSLIIWPTVEDVRCSLEGYAAGNAIPSPLKNVEKPFLKKYWARWKADHSARGRAMPHIKTFTRYNDQKIAWFLLTSSNLSKAAWGALQKNNSQLMIRSYELGVLFLPSPIKTQGCVFSCTESNPSVMKAKQETKDEVEKRSKLVTMTWQGDRDLPEIISLPVPYQLPPKPYSPEDVPWSWDRGYSKKDVYGQVWPR
# Biological target: T1, Myc tagged AN (AN-Myc)
# T1 chain: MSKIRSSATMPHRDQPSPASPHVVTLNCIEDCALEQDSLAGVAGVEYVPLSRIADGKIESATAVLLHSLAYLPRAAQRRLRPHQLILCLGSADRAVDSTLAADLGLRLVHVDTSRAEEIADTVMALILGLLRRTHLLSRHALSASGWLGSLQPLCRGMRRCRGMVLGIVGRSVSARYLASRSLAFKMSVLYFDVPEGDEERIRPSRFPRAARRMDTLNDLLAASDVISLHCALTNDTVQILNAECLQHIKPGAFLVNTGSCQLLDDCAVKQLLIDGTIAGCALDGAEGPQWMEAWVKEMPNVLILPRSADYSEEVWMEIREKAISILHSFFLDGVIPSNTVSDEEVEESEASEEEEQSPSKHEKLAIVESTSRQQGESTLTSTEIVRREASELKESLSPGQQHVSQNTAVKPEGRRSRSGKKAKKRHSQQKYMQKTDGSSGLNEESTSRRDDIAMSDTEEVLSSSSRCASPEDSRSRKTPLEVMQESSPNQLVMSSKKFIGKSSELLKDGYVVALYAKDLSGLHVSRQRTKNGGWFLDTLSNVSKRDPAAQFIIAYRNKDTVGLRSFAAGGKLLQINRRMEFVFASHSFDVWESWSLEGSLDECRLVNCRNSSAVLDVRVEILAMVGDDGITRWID
protein,measurement,value
B1,µChIP-qPCR: association of AN with MYB46 promoter,the chromatin association of AN with MYB46 promoter was significantly increased (p<0.05) in vivo when co-expressed with TDP1
